# B1: 54G8G6 (antibody, V domains shown)
# VH: QVQLQQPGADLVKPGASVKMSCKASGYTFTSYWIIWVKQRPGQGLEWIGDINPGRGSPNYNEKFKRKATLTVDTSSSTAYMQLSSLTSEDSAVYYCVRGGLRRFDHWGQGTLVTVSA
# VL: ENVLTQSPAIMSASPGEKVTMTCRASSSVSSSYLHWYQQKSGASPKLWIYSTSTLASGVPARFSGSGSGTSYSLTISSVEAEDAATYYCQQYSGYPYTFGGGTKLEIK
# notes: Murine hybridoma antibody purified on protein G
# B2: 95E2D10 (antibody, V domains shown)
# VH: QIQLQQSGPELVKPGASMKISCKASGYPFTDYYIHWVKQKPGQGLEWIGWIYPGSGNNKYNEKFKGKATLTVDTSPSTVYMQLSSLTSEDTAVYFCARRAGNYFDYWGQGTTLTVSS
# VL: NIVMTQSPKSMSRSVGERVTLSCRASENVRTYVFWYQQKPGLSPKLLIYGASNRYIGVPDRFTGSGSATDFTLTISSVQAEDLADYHCGQSYSYPLTFGAGTKLELK
# notes: as for B1
# Experiments:
# [1] = target: T1, human CD47, full length, on transfected cells (human, UniProt Q08722 19-323); test: FACS CHOK1-hCD47; Ab 0.0128 nM
# T1 construct: whole, on cells; also called CHOK1-hCD47
# Method: (§1) The CHOK1-hCD47 stable cell lines and CHOK1-cCD47 stable cell lines were expanded to 90% confluence in a T-75 cell culture flask, the medium was exhausted, washed twice with HBSS buffer (Hanks balanced salt solution) (purchased from Invitrogen), and then treated and collected with enzyme-free cell dissociation solution (Versene solution: purchased from Life technology). The cells were washed twice with HBSS buffer. After counted, the cells were diluted with HBSS to 2×10⁶ cells per ml, added with 1% goat serum blocking solution, wherein the percentage was the mass percantage, incubated on ice for 30 minutes, and then washed twice with HBSS by centrifugation. […] The plate was washed 3 times with FACS buffer by centrifugation, added with 100 μl fixative solution [4% (v/v) Paraformaldehyde] per well to suspend the cells. 10 minutes later, it was washed twice with FACS buffer by centrifugation. The cells were suspended with 100 microliters of FACS buffer, FACS (FACS Calibur, purchased from BD) was used for detection and the results were analyzed.
# [2] = target: T2, cynomolgus CD47, on CHOK1-cCD47 stable cell line (cynomolgus); test: FACS CHOK1-cCD47; Ab 0.064 nM
# T2 construct: whole, on cells; check before use; also called CHOK1/cynoCD47; monkey-derived CD47
# Method: as §1
# [3] = target: T1, human CD47, full length, on transfected …; test: FACS CHOK1-hCD47; Ab 200 nM
# Method: as §1
# [4] = target: T2, cynomolgus CD47, on CHOK1-cCD47 stable …; test: FACS CHOK1-cCD47; Ab 40 nM
# [5] = target: T1, human CD47, full length, on transfected …; test: FACS CHOK1-hCD47; Ab 0 nM (background)
# [6] = target: T1, human CD47, full length, on transfected …; test: FACS CHOK1-hCD47; Ab 0.32 nM
# Method: as §1
# [7] = target: T2, cynomolgus CD47, on CHOK1-cCD47 stable …; test: FACS CHOK1-cCD47; Ab 0.32 nM
# Method: as §1
# [8] = target: T3, His-tagged CD47 recombinant protein, CD47-His (human, UniProt Q08722 19-141, limits assumed); test: ELISA on coated CD47-His; Ab 0.533 nM
# T3 construct: it is not restated for CD47-His; also called human CD47-His protein; antigen CD47-His; not shown: His tag
# [9] = target: T3, His-tagged CD47 recombinant protein, …; test: ELISA on coated CD47-His; Ab 13.333 nM
# Method: (§2) The plate was sealed with plastic film and incubated at 4° C. overnight. The plate was washed twice with plate washing solution [PBS+0.01% (v/v) Tween20] the next day, and blocking solution [PBS+0.01% (v/v) Tween20 +1% (w/w) BSA] was added to block it at room temperature for 2 hours. […] After incubation at 37° C. for 2 hours, the plates were washed three times with plate washing solution [PBS+0.01% (v/v) Tween 20]. HRP (horseradish peroxidase) labeled secondary antibody (purchased from Sigma) was added, incubated at 37° C. for 2 hours, and then washed three times with plate washing solution [PBS+0.01% (v/v) Tween 20]. 1000 of TMB substrate was added to each well. After incubated at room temperature for 30 minutes, the plate was added with 100 μl of stop solution (1.0N HCl) to each well.
# [10] = target: T2, cynomolgus CD47, on CHOK1-cCD47 stable …; test: FACS CHOK1-cCD47; Ab 0.0128 nM
# [11] = target: T4, biotin-labeled CD47 extracellular domain protein (CD47-ECD) (UniProt Q08722 19-139, limits assumed, biotin-labeled (sites not given)); test: blocking ELISA, biotin-CD47-ECD on coated SIRPα-hFc; Ab 1.6 nM
# T4 construct: extracellular domain; also called CD47 protein
# [12] = target: T4, biotin-labeled CD47 extracellular …; test: blocking ELISA, biotin-CD47-ECD on coated SIRPα-hFc; Ab 40 nM
# Method: (§3) The plate was sealed with plastic film and incubated at 4° C. overnight. The plate was washed twice with plate washing solution [PBS+0.01% (v/v) Tween20] on the next day, and blocking solution [PBS+0.01% (v/v) Tween20 +1% (w/w) BSA] was added to block it at room temperature for 2 hours. […] After incubation at 37° C. for 2 hours, the plate was washed three times with the plate washing solution [PBS+0.01% (v/v) Tween 20]. HRP (horseradish peroxidase) labeled avidin diluent (purchased from Sigma) was added as 100 microliters per well, and after the plate was incubated for 2 hours at 37° C., it was washed 3 times with washing solution [PBS+0.01% (v/v) Tween 20]. 100 μl of TMB substrate was added to each well. After incubated at room temperature for 30 minutes, the plate was added with 100 μl of stop solution (1.0N HCl) to each well.
# [13] = target: T4, biotin-labeled CD47 extracellular …; test: blocking ELISA, biotin-CD47-ECD on coated SIRPα-hFc; Ab 8 nM
# Method: as §3
# [14] = target: T3, His-tagged CD47 recombinant protein, …; test: ELISA on coated CD47-His; Ab 0.107 nM
# Method: as §2
# [15] = target: T4, biotin-labeled CD47 extracellular …; test: blocking ELISA, biotin-CD47-ECD on coated SIRPα-hFc; Ab 0 nM
# [16] = target: T4, biotin-labeled CD47 extracellular …; test: blocking ELISA, biotin-CD47-ECD on coated SIRPα-hFc; Ab 0.064 nM
# Method: as §3
# [17] = target: T2, cynomolgus CD47, on CHOK1-cCD47 stable …; test: FACS CHOK1-cCD47; Ab 8 nM
# [18] = target: T1, human CD47, full length, on transfected …; test: FACS CHOK1-hCD47; Ab 0.064 nM
# Method: as §1
# [19] = target: T4, biotin-labeled CD47 extracellular …; test: blocking ELISA, biotin-CD47-ECD on coated SIRPα-hFc; Ab 0.32 nM
# [20] = target: T4, biotin-labeled CD47 extracellular …; test: blocking ELISA, biotin-CD47-ECD on coated SIRPα-hFc; Ab 200 nM
# Method: as §3
# [21] = target: T1, human CD47, full length, on transfected …; test: FACS CHOK1-hCD47; Ab 8 nM
# Method: as §1
# [22] = target: T3, His-tagged CD47 recombinant protein, …; test: ELISA on coated CD47-His; Ab 0.004 nM
# Method: as §2
# [23] = target: T2, cynomolgus CD47, on CHOK1-cCD47 stable …; test: FACS CHOK1-cCD47; Ab 200 nM
# Method: as §1
# [24] = target: T2, cynomolgus CD47, on CHOK1-cCD47 stable …; test: FACS CHOK1-cCD47; Ab 1.6 nM
# Method: as §1
# [25] = target: T4, biotin-labeled CD47 extracellular …; test: blocking ELISA, biotin-CD47-ECD on coated SIRPα-hFc; Ab 0.0128 nM
# [26] = target: T2, cynomolgus CD47, on CHOK1-cCD47 stable …; test: FACS CHOK1-cCD47; Ab 0 nM (background)
# Method: as §1
# [27] = target: T1, human CD47, full length, on transfected …; test: FACS CHOK1-hCD47; Ab 1.6 nM
# Method: as §1
# [28] = target: T3, His-tagged CD47 recombinant protein, …; test: ELISA on coated CD47-His; Ab 2.667 nM
# [29] = target: T3, His-tagged CD47 recombinant protein, …; test: ELISA on coated CD47-His; Ab 66.667 nM
# Method: as §2
# [30] = target: T3, His-tagged CD47 recombinant protein, …; test: ELISA on coated CD47-His; Ab 0 nM (background)
# Method: as §2
# [31] = target: T3, His-tagged CD47 recombinant protein, …; test: ELISA on coated CD47-His; Ab 0.021 nM
# Method: as §2
# [32] = target: T1, human CD47, full length, on transfected …; test: FACS CHOK1-hCD47; Ab 40 nM
# Method: as §1
Binder,mean fluorescence intensity [1],mean fluorescence intensity [2],mean fluorescence intensity [3],mean fluorescence intensity [4],mean fluorescence intensity [5],mean fluorescence intensity [6],mean fluorescence intensity [7],OD450 nm [8],OD450 nm [9],mean fluorescence intensity [10],OD450 nm of CD47 bound to SIRPα [11],OD450 nm of CD47 bound to SIRPα [12],OD450 nm of CD47 bound to SIRPα [13],OD450 nm [14],OD450 nm of CD47 bound to SIRPα [15],OD450 nm of CD47 bound to SIRPα [16],mean fluorescence intensity [17],mean fluorescence intensity [18],OD450 nm of CD47 bound to SIRPα [19],OD450 nm of CD47 bound to SIRPα [20],also measured
B1,216,908,16700,21200,23.1,1940,3250,2.99,2.94,278,0.13,0.06,0.09,2.1,2.9,1.76,21300,561,0.31,0.07,mean fluorescence intensity [21]: 13500; OD450 nm [22]: 0.18; mean fluorescence intensity [23]: 17200; mean fluorescence intensity [24]: 9570; OD450 nm of CD47 bound to SIRPα [25]: 2.89; mean fluorescence intensity [26]: 76.8; mean fluorescence intensity [27]: 6180; OD450 nm [28]: 3; OD450 nm [29]: 2.86; OD450 nm [30]: 0.05; OD450 nm [31]: 0.62; mean fluorescence intensity [32]: 17700
B2,221,734,15800,17500,23.3,2490,3040,2.96,2.98,223,0.52,0.06,0.09,2.07,2.94,2.84,21400,408,2,0.06,mean fluorescence intensity [21]: 12300; OD450 nm [22]: 0.17; mean fluorescence intensity [23]: 21200; mean fluorescence intensity [24]: 7990; OD450 nm of CD47 bound to SIRPα [25]: 2.96; mean fluorescence intensity [26]: 76; mean fluorescence intensity [27]: 6140; OD450 nm [28]: 3.01; OD450 nm [29]: 2.93; OD450 nm [30]: 0.05; OD450 nm [31]: 0.58; mean fluorescence intensity [32]: 17300

# Reference: patent US20220017615A1 (SHANGHAI PHARMAEXPLORER, published 2022)
